The values below come from article PMC5954133, “Functional Characterization of a Small Alarmone Hydrolase in Corynebacterium glutamicum” (Frontiers in Microbiology, 2018).

Assay in all cases: HPLC-UV pyrophosphohydrolase assay, Eadie-Hofstee
Type in all cases: biochemical, Corynebacterium glutamicum

Substrate in series [1]: Nc1nc2c(ncn2[C@@H]2O[C@H](COP(=O)(O)OP(=O)(O)OP(=O)(O)O)[C@@H](OP(=O)(O)OP(=O)(O)O)[C@H]2O)c(=O)[nH]1
Conditions: 1 mM MnCl2, 50 mM HEPES-Na pH 8.0, 200 mM NaCl, 30°C, substrate inhibition, approximate fit from lowest concentrations. An excerpt:
(§1) HPLC-UV pyrophosphohydrolase assay, Eadie-Hofstee on […]

Substrate in series [2]: Nc1nc2c(ncn2[C@@H]2O[C@H](COP(=O)(O)OP(=O)(O)O)[C@@H](OP(=O)(O)OP(=O)(O)O)[C@H]2O)c(=O)[nH]1
The conditions noted are these: 1 mM MnCl2, 50 mM HEPES-Na pH 8.0, 200 mM NaCl, 30°C, substrate inhibition, approximate fit from lowest concentrations.
From the text: as §1

Substrate in series [3]: Nc1nc2c(ncn2[C@@H]2O[C@H](COP(=O)(O)O)[C@@H](OP(=O)(O)OP(=O)(O)O)[C@H]2O)c(=O)[nH]1
The conditions noted are these: 1 mM MnCl2, 50 mM HEPES-Na pH 8.0, 200 mM NaCl, 30°C, substrate inhibition, approximate fit from lowest concentrations, only two data points, no error analysis.
From the text: as §1

Substrate in series [4]: Nc1nc2c(ncn2[C@@H]2O[C@H](COP(=O)(O)OP(=O)(O)OP(=O)(O)O)[C@@H](OP(=O)(O)OP(=O)(O)O)[C@H]2O)c(=O)[nH]1
Conditions: 1 mM MnCl2, 50 mM HEPES-Na pH 8.0, 200 mM NaCl, 30°C, substrate inhibition, approximate fit from lowest concentrations, only two data points, no error analysis. An excerpt: (§2) HPLC-UV pyrophosphohydrolase assay, Eadie-Hofstee on RelCg

Substrate in series [5]: Nc1nc2c(ncn2[C@@H]2O[C@H](COP(=O)(O)OP(=O)(O)O)[C@@H](OP(=O)(O)OP(=O)(O)O)[C@H]2O)c(=O)[nH]1
The conditions noted are these: 1 mM MnCl2, 50 mM HEPES-Na pH 8.0, 200 mM NaCl, 30°C, substrate inhibition, approximate fit from lowest concentrations.
From the text: as §2
This is another data set of the same source.

Substrate in series [6]: Nc1nc2c(ncn2[C@@H]2O[C@H](COP(=O)(O)O)[C@@H](OP(=O)(O)OP(=O)(O)O)[C@H]2O)c(=O)[nH]1
The conditions noted are these: 1 mM MnCl2, 50 mM HEPES-Na pH 8.0, 200 mM NaCl, 30°C, substrate inhibition, approximate fit from lowest concentrations.
From the text: as §2

B1: RelHCg (Corynebacterium glutamicum ATCC 13032) (protein)
chain: MNTLSPRLRKAMNTAAWAHRHHVRKGGGIPYVSHLYSVMYLLASVTNDEDVLIAGLLHDTLEDVPEEYNSAQLEADFGPRVRELVEELTKQPLKSWKARADAYLLHLSAGASLEAVLISTADKLHNLMSILDDLEIHGEDLWQRFNAGKEQQIWWYSEVYQISLQRLGFNELNKQLGLCVEKLLKQSA
notes: full-length; expressed in E. coli ER2566
As usually defined, the Km is the substrate concentration at which the rate is half of its maximum. One may read the kcat as the number of substrate molecules converted per active site and unit of time at saturation. One may read the kcat/Km as the turnover number divided by the Michaelis constant. With B1, in series [1], the Michaelis-Menten constant (Km) is 90 ± 11 µM, the kcat was 0.09 ± 0.003 s⁻¹ and the specificity constant (kcat/Km) was found to be 1010 M⁻¹ s⁻¹. For the same protein, in series [2], the Km is 101 ± 7 µM, the kcat was 0.502 ± 0.018 s⁻¹ and the kcat/Km came out at 4970 M⁻¹ s⁻¹. Moreover, in series [3], the Km amounted to 144 µM, the kcat stood at 0.294 s⁻¹ and the kcat/Km was found to be 2040 M⁻¹ s⁻¹.

B2: RelCg (Corynebacterium glutamicum ATCC 13032) (protein)
chain: MSLERNTQKSSMGVRSMSARLARSLTGNRVRTNPVLDPLLSIHRQFHPRADVQVLERAYDTAERLHDGVIRKSGDPYITHPLAVATIAAEIGMDTTTLVAALLHDTVEDTDYSLDDLTRDFGEEVARLVDGVTKLDKVALGAAAEAETIRKMIVAMSQDPRVLVIKVADRLHNMRTMRFLPPEKQAKKARQTLEVIAPLAHRLGMASVKWELEDLSFAILYPKKYEEIVRLVADRAPSRDRYLKEIIDQVTGGLRENNIAAEVLGRPKHYWSIYQKMIVRGRDFDDIFDLVGIRILVDNVNNCYAAIGVVHSLFNALPGRFKDYISAPRFGVYQSLHTTVMGPGGKPLEVQARTHDMHYNAEFGIAAHWRYKETKGSHSGEQAEVDQMAWMRQLLDWQKEAADPNEFLDSLRYDLTSKQIFVFTPKGDVVNLPVNSTPVDFAYAVHTEVGHRCIGAKINGKLVALETKLKSGDRVEVFTSKDQNAGPSRGWQEFVVSPRAKAKIRQWFAKERREEYLEAGRDALAAVIQRGGLPMHRLFTASSMKTVATELHYPDVDALYTAIGSGSVSAQHVVNRLMAIFGDEEDAEDALVARTPFSELVNSRATTESSTGILVEGSPDVMAKLAKCCMPVPGDEIFGFVTRGGGVSVHRTDCTNVEKLKEEPERIVSVSWASEGQGSVFSATLQLEALDRAGLLFELTRVINEQKVSVTAMNSHCSEDRVATVRFTFAVSDTKQLGSLMTQLRNAEGVFDVYRVTSGG
notes: full-length bifunctional RSH; expressed in E. coli ER2566
As to B2, the Km in series [4] came out at 422 µM; in series [5] it was 511 ± 10 µM; in series [6] it was 734 ± 127 µM. Besides, the catalytic constant (kcat) in series [4] worked out at 0.563 s⁻¹; in series [5], 0.296 ± 0.004 s⁻¹; in series [6], 0.794 ± 0.071 s⁻¹. The catalytic efficiency (kcat/Km) in series [4] amounted to 1340 M⁻¹ s⁻¹; in series [5] it was 579 M⁻¹ s⁻¹; in series [6], 1080 M⁻¹ s⁻¹.
